Results: publication PMC10179326

B1: 2GLE (analogue 2 - GLE tripeptide conjugate) (structured_DNA)
DNA: GGGTTGGGTGTGGGTTGGG
modifications: alpha-deoxyguanosine at positions 1,12; tripeptide GLE conjugated at T4 (N3 position, equivalent of T3 in TBA)

Molecular target: alpha-thrombin (Homo sapiens, UniProt P00734;P00734 328-363;364-622)
Assay: MST; potassium phosphate pH 7.5, 20 nM aptamer; EMSA: 10 mM sodium cacodylate pH 7.2, 100 mM KCl in D2O, incubation 25 C, 12% native gel in 1x TBE + 10 mM KCl at 10 C; MST: 10 mM Tris-HCl, 100 mM potassium ph

Row | Binder | Kd [nM]
1 | GGTTGGTGTGGTTGG (structured_DNA) [TBA (15-mer thrombin binding aptamer)] | 19.5
2 | B1 | 2.7
